Measurements reported in patent publication US20220251159A1.

Biological target: fluorescently labeled WTp53DBD (MST assay) (UniProt P04637)
Assay: MST; FIG. 3D; myristoylated

Sequence of fluorescently labeled WTp53DBD (MST assay) (P04637 94-312): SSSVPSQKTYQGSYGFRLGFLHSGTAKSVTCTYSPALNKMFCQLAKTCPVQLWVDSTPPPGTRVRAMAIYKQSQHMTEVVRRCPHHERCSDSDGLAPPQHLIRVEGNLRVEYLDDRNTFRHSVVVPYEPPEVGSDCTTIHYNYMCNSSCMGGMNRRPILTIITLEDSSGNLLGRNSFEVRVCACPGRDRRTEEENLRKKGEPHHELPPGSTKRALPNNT

For pCAP-402 myr-HSTPHPD, the Kd was 30 µM.
